Assay results published in patent US20150184163A1.

Target: TSLP Receptor (TSLPR), heterodimer of the IL7 receptor alpha (IL7Rα) chain and the TSLP-specific receptor chain (TSLPR; Crlf2), on mouse DRG sensory neurons (mouse) (UniProt Q8CII9)
Experiment: cell-based or functional assay

Sequence of TSLP Receptor (TSLPR), heterodimer of the IL7 receptor alpha (IL7Rα) chain and the TSLP-specific receptor chain (TSLPR; Crlf2), on mouse DRG sensory neurons (mouse) (Q8CII9 20-359, chain 1 of 2): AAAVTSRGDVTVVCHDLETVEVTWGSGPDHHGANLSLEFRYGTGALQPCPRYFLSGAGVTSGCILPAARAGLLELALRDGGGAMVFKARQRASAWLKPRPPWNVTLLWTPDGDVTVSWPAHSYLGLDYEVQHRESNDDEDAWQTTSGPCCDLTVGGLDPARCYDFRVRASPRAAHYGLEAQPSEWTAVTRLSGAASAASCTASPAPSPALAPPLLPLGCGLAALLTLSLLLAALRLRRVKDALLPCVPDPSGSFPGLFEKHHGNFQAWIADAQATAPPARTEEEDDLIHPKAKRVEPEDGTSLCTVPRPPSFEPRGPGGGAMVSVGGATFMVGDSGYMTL
Sequence of TSLP Receptor (TSLPR), heterodimer of the IL7 receptor alpha (IL7Rα) chain and the TSLP-specific receptor chain (TSLPR; Crlf2), on mouse DRG sensory neurons (mouse) (P16872 21-459, chain 2 of 2, further chain): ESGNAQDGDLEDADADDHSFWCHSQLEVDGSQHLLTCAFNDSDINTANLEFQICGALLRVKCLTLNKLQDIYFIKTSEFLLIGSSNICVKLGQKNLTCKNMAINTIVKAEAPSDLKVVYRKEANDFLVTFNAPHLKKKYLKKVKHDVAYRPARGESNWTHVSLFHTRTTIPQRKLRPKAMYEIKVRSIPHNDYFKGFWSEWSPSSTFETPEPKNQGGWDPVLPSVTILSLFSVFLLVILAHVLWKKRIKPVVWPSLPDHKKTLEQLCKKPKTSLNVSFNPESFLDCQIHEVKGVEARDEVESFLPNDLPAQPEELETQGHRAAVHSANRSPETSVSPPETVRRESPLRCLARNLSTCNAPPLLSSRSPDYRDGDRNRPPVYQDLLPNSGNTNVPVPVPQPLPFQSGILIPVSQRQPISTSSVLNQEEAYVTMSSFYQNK

## Thymic Stromal Lymphopoietin (TSLP) (ligand)
  prevalence of DRG neurons with increases in intracellular Ca2+ following TSLP application (ratiometric Ca2+ imaging): 4.1%
